Data reported in patent US20110171681.

Columns and labels:
[1] = biological target: cell surface beta1,4-galactosyltransferase I (GalT), mouse, endogenous (UniProt P15535)
[2] = biological target: cyclin-dependent kinase inhibitor p57(kip2) (UniProt P49919)

For His tagged GTAP, the “in vitro ubiquitination of immunoprecipitated GalT” value [1] was “Surprisingly GTAP had no effect on immunoprecipitated GalT in an in vitro ubiquitin system” and the “in vitro ubiquitination of p57 with biotinylated ubiquitin” value [2] was “GTAP increased the ubiquitination of p57 only in the presence of E1”.
